From patent US7078038 come the findings set out here.

Assay [1] addresses CD4 receptor on the cell surface (UniProt P01730). As to the kind of experiment: cell-based or functional assay.
In assay [2] the target is wild gp120 fixed to CEM cells CD4+/CXCR4+ (HIV-1 (HXB2 clone of HIV-IIIB)) (UniProt P04578). Kind of assay: flow cytometry, antibody at 10 µg/ml on gp120 fixed to CEM cells CD4+/CXCR4+.
For assay [3], the target named is W338S gp120 fixed to CEM cells CD4+/CXCR4+ (HIV-1 (HXB2 clone of HIV-IIIB)) (UniProt P04578). The assay is described as above.
Assay [4] deals with CXCR4 receptor on the cell surface (UniProt P61073). Kind of assay: cell-based or functional assay.

In assay [1], “gp160 envelope with 112 W/F in gp120, expressed on transfected HeLa-Tat cells (from UniProt P04578 33-856)” returned a Percentage of fusion foci of 60%. Same read-out and setting: the figure for “112W/S gp120 expressed on the surface of transfected HeLa-Tat cells (gp160 envelope with 112 W/S) (from UniProt P04578 33-856)” is 0%.

Take AcM 4.8d (antibody): the average fluorescence intensity in assay [2] stood at 76.8; in assay [3], 209. For AcM 17b (antibody) the same measures were 70.5 and 176. As for “gp160 envelope with 338 W/S in gp120, expressed on transfected HeLa-Tat cells (from UniProt P04578 33-856)”, the Percentage of fusion foci in assay [4] came out at 0%.
